Measurements taken from patent publication US9012420B2, “Aptamer for chymase, and use thereof” (Ribomic Inc., priority 2009, dated 2015).
Oligonucleotides are written 5' to 3', each unit as a sugar letter and its base; * is a phosphorothioate linkage, no mark a phosphodiester; rarer units and linkages stand in square brackets, end groups in braces. Plain capitals give the bases only. r = 2'-OH (RNA); f = 2'-fluoro

Assays:
chymase [1] = target: T1, chymase (Homo sapiens, UniProt P23946 P23946:22-247); assay: inhibition; Suc-AAPF-MCA, 37 C, solution C; conditions: tags: recombinant, expressed in yeast, SIGMA
T1 sequence: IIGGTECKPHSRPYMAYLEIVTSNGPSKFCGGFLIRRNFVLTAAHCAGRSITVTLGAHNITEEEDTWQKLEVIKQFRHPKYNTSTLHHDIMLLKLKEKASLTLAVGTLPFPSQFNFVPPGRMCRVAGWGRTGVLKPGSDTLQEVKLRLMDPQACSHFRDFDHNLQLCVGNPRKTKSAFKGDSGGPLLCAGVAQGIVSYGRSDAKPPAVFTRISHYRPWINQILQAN
Procedure: Here, Suc is a protecting succinyl group, and MCA is a 4-methylcoumaryl-7-amide group; upon cleavage of the C-terminal side of phenylalanine, AMC (7-amino-4-methyl-coumarine) is released. By detecting the fluorescence of this AMC, the enzyme activity of chymase can be determined. The assay was performed using a 96-well plate (F16 Black Maxisorp Fluoronunc, manufactured by Nunc), with a reaction mixture volume of 100 μL, in solution C as a buffer solution. First, each nucleic acid was serially diluted to 0.0027-2 μM concentrations in solution C to obtain 50 μL solutions. After 10 μL of the 1 mM substrate prepared in solution C was added thereto, the plate was set to the microplate reader SpectraMax190 (manufactured by Molecular Devices Corporation), and incubated at 37° C. for 5 minutes. Separately, 0.05 μg (or 0.005 μg) of chymase (recombinant, manufactured by SIGMA) was diluted in solution C to obtain a 40 μL chymase solution, and incubated at 37° C. for 5 minutes. The chymase solution was added to the mixture of the nucleic acid and substrate to initiate an enzyme reaction. The final chymase concentration in the reaction mixture was 16.7 nM (or 1.67 nM), the final substrate concentration being 100 μM. The plate containing the reaction mixture was set to the microplate reader SpectraMax190 (manufactured by Molecular Devices Corporation), and examined for time-dependent changes in the fluorescence intensity at 37° C. for 5 minutes (or 30 minutes) (excitation wavelength 380 nm, detection wavelength 460 nm). A linear approximation of the increase in the fluorescence of the AMC released from the substrate by chymase activity was generated, and its slope was taken as the initial velocity […]. For control, samples were treated and analyzed in the same manner in two cases: use of a 30N or 40N (a nucleotide of 30 or 40 consecutive bases represented by N; N is A, G, C or T) nucleic acid pool (negative control), and use of chymostatin, a known chymotrypsin-like serine protease inhibitor (positive control). Taking the initial reaction velocity without the nucleic acid and inhibitor (V_0) as a 100% enzyme activity, the inhibitory rate of each test substance was calculated using the following equation: […]
The chymase inhibitory activity was measured in the same manner as in Example 3.

[2] = target: T2, chymase (recombinant, manufactured by SIGMA) (Homo sapiens, UniProt P23946); assay: Chymase inhibitory activity using synthetic substrate Suc-Ala-Ala-Pro-Phe-MCA; assay type: biochemical; conditions: Table 3; substrate 100 μM, solution C, 37° C.; mean value for 2 to 3 measurements
T2 construct: purchased SIGMA; host or cells: yeast
T2 sequence (P23946 22-247): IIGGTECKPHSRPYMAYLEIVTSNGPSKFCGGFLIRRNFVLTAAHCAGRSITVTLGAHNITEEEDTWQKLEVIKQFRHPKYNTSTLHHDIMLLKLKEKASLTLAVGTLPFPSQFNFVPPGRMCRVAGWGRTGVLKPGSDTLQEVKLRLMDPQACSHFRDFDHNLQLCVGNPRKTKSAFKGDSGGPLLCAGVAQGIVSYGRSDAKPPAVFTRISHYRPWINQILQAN
Procedure: A first method employs a synthetic substrate. A useful chymase substrate is Suc-Ala-Ala-Pro-Phe-MCA (4-methylcoumaryl-7-amide group) (manufactured by Peptide Institute, Inc.), which contains the 4-amino acid peptide “Ala-Ala-Pro-Phe”, a standard substrate for chymotrypsin-like proteases.
The assay is performed using a 96-well plate (F16 Black Maxisorp Fluoronunc, manufactured by Nunc), with a reaction mixture volume of 100 μL, in a buffer solution (solution C; see Example 2 below). First, each nucleic acid is prepared in solution C to obtain 50 μL solutions. After 10 μL of the 1 mM substrate prepared in solution C is added, the plate is set to the microplate reader SpectraMax190 (manufactured by Molecular Devices Corporation), and incubated at 37° C. for 5 minutes. Separately, 0.05 μg of chymase (recombinant, manufactured by SIGMA) is diluted in solution C, and 40 μL of this dilution is incubated at 37° C. for 5 minutes. The chymase solution is added to the mixture of the nucleic acid and substrate to initiate an enzyme reaction. The plate containing the reaction mixture is set to the microplate reader SpectraMax190 (manufactured by Molecular Devices Corporation), and examined for time-dependent changes in the fluorescence intensity at 37° C. for 5 minutes (excitation wavelength 380 nm, detection wavelength 460 nm). A linear approximation of the increase in the fluorescence of the AMC (7-amino-4-methylcoumarine) released from the substrate by chymase activity is generated, and its slope is taken as the initial reaction velocity. For control, samples are treated and analyzed in the same manner in two cases: use of a nucleic acid pool containing a random sequence of 30 or 40 nucleotides (negative control), and use of chymostatin, a known chymotrypsin-like serine protease inhibitor (positive control). Taking the initial reaction velocity without the nucleic acid and inhibitor as a 100% enzyme activity, the inhibitory rate for each test substance is calculated, and the inhibitor concentration required to cause a 50% inhibition of the enzyme activity (IC50) is determined.
Whether the nucleic acids shown by SEQ ID NO: 4-20, 22-34, and 38-48 inhibit the enzyme activity of chymase was determined as described below. The chymase substrate used was Suc-Ala-Ala-Pro-Phe-MCA (manufactured by Peptide Institute, Inc.), which contains the 4-amino-acid peptide Ala-Ala-Pro-Phe, a standard substrate for chymotrypsin-like proteases. Here, Suc is a protecting succinyl group, and MCA is a 4-methylcoumaryl-7-amide group; upon cleavage of the C-terminal side of phenylalanine, AMC (7-amino-4-methylcoumarine) is released. By detecting the fluorescence of this AMC, the enzyme activity of chymase can be determined. The assay was performed using a 96-well plate (F16 Black Maxisorp Fluoronunc, manufactured by Nunc), with a reaction mixture volume of 100 μL, in solution C as a buffer solution. First, each nucleic acid was serially diluted to 0.0027-2 μM concentrations in solution C to obtain 50 μL solutions. After 10 μL of the 1 mM substrate prepared in solution C was added thereto, the plate was set to the microplate reader SpectraMax190 (manufactured by Molecular Devices Corporation), and incubated at 37° C. for 5 minutes. Separately, 0.05 μg (or 0.005 μg) of chymase (recombinant, manufactured by SIGMA) was diluted in solution C to obtain a 40 μL chymase solution, and incubated at 37° C. for 5 minutes. The chymase solution was added to the mixture of the nucleic acid and substrate to initiate an enzyme reaction. The final chymase concentration in the reaction mixture was 16.7 nM (or 1.67 nM), the final substrate concentration being 100 μM. The plate containing the reaction mixture was set to the microplate reader SpectraMax190 (manufactured by Molecular Devices Corporation), and examined for time-dependent changes in the fluorescence intensity at 37° C. for 5 minutes (or 30 minutes) (excitation wavelength 380 nm, detection wavelength 460 nm). […]

chymase [3] = target: T3, chymase (Homo sapiens, UniProt P23946); assay: Surface plasmon resonance (Biacore T100), aptamer immobilized on SA chip, chymase injected as analyte; assay type: binding; parameters: key: ++: a sequence that binds to chymase significantly more strongly than the negative control 40N; +: a sequence that binds to chymase equivalently compared with the negative control 40N; conditions: Table 1; about 1000 RU nucleic acid immobilized, chymase 0.2 μM analyte, running buffer solution A; compared with 40N
T3 sequence (P23946 22-247): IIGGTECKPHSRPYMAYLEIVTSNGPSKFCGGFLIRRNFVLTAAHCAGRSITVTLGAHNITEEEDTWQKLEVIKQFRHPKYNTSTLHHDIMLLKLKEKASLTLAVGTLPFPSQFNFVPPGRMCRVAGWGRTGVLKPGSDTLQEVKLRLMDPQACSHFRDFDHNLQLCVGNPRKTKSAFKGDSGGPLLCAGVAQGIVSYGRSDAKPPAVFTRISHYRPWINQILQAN
Procedure: Binding strength is measured using Biacore T100 (manufactured by GE Healthcare). In a method of measurement, the aptamer is first immobilized onto a sensor chip, the amount immobilized being about 1000 RU. 20 μL of a chymase solution for analyte, prepared at 0.2 μM, is injected, and the binding of chymase to the aptamer is detected. An RNA comprising a random nucleotide sequence of 30 or 40 nucleotides is used as a negative control.
The binding activities against chymase of the nucleic acids shown by SEQ ID NO: 4-20 and 22-34 were determined by the surface plasmon resonance method using Biacore T100 (manufactured by GE Healthcare). The sensor chip used was the SA chip, which had streptavidin immobilized thereon. Bound thereto was about 1500 RU of a 16-nucleotide Poly dT with biotin bound to the 5′ end thereof. […] 20 μL of chymase for analyte, prepared at 0.2 μM, was injected. Solution A was used as a running buffer.
The binding activities against chymase of the nucleic acids shown by SEQ ID NO: 38-48 were evaluated by the surface plasmon resonance method. In the evaluations for SEQ ID NO: 38-48, measurements were taken in the same manner as Example 1. Solution C was used as a running buffer.

GGGUUAGAUAGAGUUAAAAACCC (ssRNA, 2'-F U and C; 2'-OMe 1-3,7,8,10,16,17,19,20) [56(20)]
IC50 (chymase [1]): 102 nM

GGGUUAGAUAGAGUUAAAAACCC (ssRNA, 2'-F U and C; 2'-OMe 1-3,19,20; 5' and 3' idT) [56(24)]
IC50 (chymase [1]): 38 nM

GGGUUAGAUAGAGUUAAAAACCC (ssRNA, 2'-F U and C; 2'-OMe 7,8,10; 5' and 3' idT) [56(25)]
IC50 (chymase [1]): 70 nM

GGGUUAGAUAGAGUUAAAAACCC (ssRNA, 2'-F U and C; 2'-OMe 1-3,10,13,16-20; PS 7-8; 5' and 3' idT) [56(36)]
IC50 (chymase [1]): 97 nM

GGGUUAGAUAGAGUUAAAAACCC (ssRNA, 2'-F U and C; 2'-OMe 1-3,10,13,16-20; PS 6-7,7-8; 5' and 3' idT) [56(37)]
IC50 (chymase [1]): 46 nM

GGGUUAGAUAGAGUUAAAAACCC (ssRNA, 2'-F U and C; 2'-OMe 2,3,7,8,10,13,16-20; 5' PEG 40 kDa; 3' idT) [56(39)]
IC50 (chymase [1]): 86 nM

GGGUUAGAUAGAGUUAAAAACCC (ssRNA, 2'-F U and C; 2'-OMe 2,3,7,8,10,13,16-20; 5' and 3' idT) [56(40)]
IC50 (chymase [1]): 51 nM

GGGUUAGAUAGAGUUAAAAACCC (ssRNA, 2'-F U and C; 2'-OMe 2,3,7,8,10,13,16-20; PS 6-7; 5' and 3' idT) [56(41)]
IC50 (chymase [1]): 53 nM

GGGUUAGAUAGAGUUAAAAACCC (mixed, 2'-F U and C; 2'-OMe 1-3,7,10,13,16-20; DNA A6; 5' and 3' idT) [56(49)]
IC50 (chymase [1]): 69 nM

GGGUUAGAUAGAGUUAAAAACCC (mixed, 2'-F U and C; 2'-OMe 1-3,10,13,16-20; DNA G7,A8; 5' and 3' idT) [56(52)]
IC50 (chymase [1]): 52 nM

GGGTTAGAUAGAGTUAAAAACCC (mixed, 2'-F U; 2'-OMe 1-3,7,8,10,16-20; DNA T4,T5,G13,T14,C21-C23; 5' and 3' idT) [72(3)]
IC50 (chymase [1]): 50 nM

GGGTTAGAUAGAGTUAAAAACCC (mixed, 2'-F U; 2'-OMe 1-3,7,8,10,13,17-20; DNA T4,T5,T14,A16,C21-C23; 5' and 3' idT) [72(4)]
IC50 (chymase [1]): 65 nM

B1: 8 (nucleic acid)
chain: rGrGrGrAfCrGrGfUrArGrGrArAfUfUfCfUrAfCrGrGfUfCfUrGfUrGfUrGrArArAfUfUrGrArArAfCrAfCrAfCrArArArGrArAfCrArAfUrArArAfCrAfUrArGrArArGrArGfCrGrGfCfCrGfC
modifications: aptamer
IC50 [2]: 453 ± 463 nM
Binding activity as determined using Biacore (chymase [3]): ++

B2: 9 (nucleic acid)
chain: rGrGrGrAfCrGrGfUrArGrGrArAfUfUfCfCfCrGrArArArArGfCrArAfCrArArGfCfUfUrGfCfUrArArArAfUrGrAfUfUfCfCrGrArArArArArAfCrAfCrAfUrArGrArArGrArGfCrGrGfCfCrGfC
IC50 [2]: 273 ± 69 nM
Binding activity as determined using Biacore (chymase [3]): ++

B3: 10 (nucleic acid)
chain: rGrGrGrAfCrGrGfUrArGrGrArAfUfUfCfCrGfCfCrGfCfCfUrArArArArArAfCrGrAfCrGrAfUrAfUfUrAfCrArGrArArAfCrGfUfCrArArAfUrAfCrAfUrArGrArArGrArGfCrGrGfCfCrGfC
modifications: aptamer
IC50 [2]: > 500 nM
Binding activity as determined using Biacore (chymase [3]): ++

B4: 11 (nucleic acid)
chain: rGrGrGrAfCrGrGfUrArGrGrArAfUfUfCfCfCrGrAfCrAfCrGrArArAfUrGfUrGfUrGrAfUfUrArAfUfUfCfCrGrArAfCrArAfCrArArArGfUrArAfCrAfUrArGrArArGrArGfCrGrGfCfCrGfC
modifications: aptamer
IC50 [2]: 145 ± 36 nM
Binding activity as determined using Biacore (chymase [3]): ++

B5: 12 (nucleic acid)
chain: rGrGrGrAfCrGrGfUrArGrGrArAfUfUfCrGfCfCrGfUfCrArAfCrGfUfUrAfCrAfUrArAfUrGfUrAfUrAfUrAfCfCrArGrGrGfUrArAfCfUrArArAfCrAfUrArGrArArGrArGfCrGrGfCfCrGfC
modifications: aptamer
IC50 [2]: 128 ± 23 nM
Binding activity as determined using Biacore (chymase [3]): ++

B6: 15 (nucleic acid)
chain: rGrGrGrAfCrGrGfUrArGrGrArAfUfUfCfCfCrArGrArArArAfUrArArAfUfUfCfCrGrArArGrArArArAfCrArAfCrArAfUfUfUfUfUrGfCrArArAfCrAfUrArGrArArGrArGfCrGrGfCfCrGfC
modifications: aptamer
IC50 [2]: 285 ± 21 nM
Binding activity as determined using Biacore (chymase [3]): ++
